In patent US20260209265A1 (NAVIGO PROTEINS, published 2026):

Columns and labels:
Octagam (IgG sample) [1] = target: T1, Octagam (IgG sample); test: DBC10 of the immobilized ligand after 50 h in 1 M NaOH, in % of the DBC10 at 0 h; Octagam loaded, 6 min residence time
T1 construct: also called hIgG

Octagam (IgG sample) [2] = target: T1, Octagam (IgG sample); test: dynamic binding capacity at 10% breakthrough; ligand coupled to agarose beads, Octagam 2.2 mg/ml loaded
Octagam (IgG sample) [3] = target: T1, Octagam (IgG sample); test: step pH elution with 0.1 M acetic acid of hIgG (Octagam) bound to the immobilized ligand; percent of the bound IgG released at pH 3.7
Natalizumab (IgG4) = test: SPR (Bruker SPR-32, 25 C, Langmuir 1:1 model)
Natalizumab (IgG4), sequence (VH, as listed by the source, chain 1 of 2): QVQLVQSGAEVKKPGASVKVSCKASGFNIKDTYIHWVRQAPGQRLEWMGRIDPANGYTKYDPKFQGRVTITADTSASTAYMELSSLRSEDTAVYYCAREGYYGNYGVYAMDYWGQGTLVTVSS
Natalizumab (IgG4), sequence (VL, as listed by the source, chain 2 of 2): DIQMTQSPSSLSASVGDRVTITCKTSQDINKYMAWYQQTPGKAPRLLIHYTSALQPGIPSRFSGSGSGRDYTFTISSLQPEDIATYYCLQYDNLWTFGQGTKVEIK
Source text: (§1) A sensor chip (Bruker) was equilibrated with surface plasmon resonance (SPR) running buffer. Surface-exposed carboxylic groups were activated by passing a mixture of EDC and NHS to yield reactive ester groups. 700-1500 RU on-ligand were immobilized on a flow cell, off-ligand was immobilized on another flow cell. Injection of ethanolamine after ligand immobilization removes non-covalently bound Ig binding protein. Upon ligand binding, protein analyte was accumulated on the surface increasing the refractive index. This change in the refractive index was measured in real time and plotted as response or resonance units (RU) versus time. The analytes were applied to the chip in serial dilutions with a suitable flow rate (pl/min). After each run, the chip surface was regenerated with regeneration buffer and equilibrated with running buffer. The control samples were applied to the matrix. Regeneration and re-equilibration were performed as previously mentioned. Binding studies were carried out by the use of the Bruker SPR-32 at 25° C.; data evaluation was operated via the Bruker evaluation software, provided by the manufacturer, by the use of the Langmuir 1:1 model (RI=0).

Panitumab (IgG2) = target: T2, Panitumab (IgG2); test: SPR (Bruker SPR-32, 25 C, Langmuir 1:1 model)
T2 construct: also called hIgG2
Source text: as §1

Octagam (IgG sample) [4] = target: T1, Octagam (IgG sample); test: step pH elution with 0.1 M acetic acid of hIgG (Octagam) bound to the immobilized ligand; percent of the bound IgG released at pH 4.0

B1: 224777 (SEQ ID NO: 7) (designed binder)
chain: AQFDKIAQIAFYAILHLPNLTEEQRHAFIQSLRDDPSVSKEILAEAKKLNDAQAPKIAAQFDKIAQIAFYAILHLPNLTEEQRHAFIQSLRDDPSVSKEILAEAKKLNDAQAPKIAAQFDKIAQIAFYAILHLPNLTEEQRHAFIQSLRDDPSVSKEILAEAKKLNDAQAPKIAAQFDKIAQIAFYAILHLPNLTEEQRHAFIQSLRDDPSVSKEILAEAKKLNDAQAPKIAAQFDKIAQIAFYAILHLPNLTEEQRHAFIQSLRDDPSVSKEILAEAKKLNDAQAPK
notes: also called 224777 pentamer
Q: With B1 as the binder, how does the “Remaining IgG binding capacity after 50 h, 1 M NaOH (%)” value (Octagam (IgG sample) [1]) read?
A: 76%

Q: What about the “DBC10% 6 min residence time” value (Octagam (IgG sample) [2]) of the same binder?
A: 61 mg/mL

Q: And the “Amount eluted IgG pH 3.7 (%)” value (Octagam (IgG sample) [3])?
A: 0%

Q: What about the Kd (Natalizumab (IgG4)) of the same binder?
A: 2 nM

Q: What about the Kd (Panitumab (IgG2)) of the same binder?
A: 5.8 nM

Q: What about the “Amount eluted IgG pH 4.0 (%)” value (Octagam (IgG sample) [4]) of the same binder?
A: 100%
